Laboratory results taken from publication PMC4336609.

Target: 14-3-3β (UniProt P31946)
Assay: GST-14-3-3β pull-down from cell lysate
Settings: reference: wild type; sites T181

binding against the reference: lost
Substance: XLF (from UniProt Q9H9Q4) T181A
